Data taken from the RNAGym collection of RNA variant scans (doi:10.1073/pnas.2313332121).
Variants at the floor of the assay were thinned out.

B1: TPR 5TU (parent)
chain: GGAUCUUCUCGAUCUAACAAAAAAGACAAAUCUGCCACAAAGCUUGAGAGCAUCUUCGGAUGCAGAGGCGGCAGCCUUCGGUGGCGCGAUAGCGCCAACGUUCUCAACUAUGACACGCAAAACGCGUGCUCCGUUGAAUGGAGUUUAUCAUG

Variants of: B1
Test: polymerase ribozyme fitness, log enrichment relative to wild type (log ratio); higher = more active; in vitro selection for triplet polymerase activity
Summary of the method: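 Streptavidin-bead capture of gel-excised extended constructs, followed by RT-PCR, closed a single triplicate in vitro selection round. That round began by annealing PCR-built, transcribed mutant libraries of each subunit of a heterodimeric triplet polymerase ribozyme with a biotinylated primer, the partner subunit and triplets, then incubating them frozen at −7 °C. After Illumina sequencing of inputs and outputs, genotypes needed ≥10 input reads and ≥1 read per output. Fitness is the base-2 logarithm of genotype enrichment over wild-type enrichment, using inverse-variance-weighted replicate averages.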

| Variant | polymerase ribozyme fitness (log ratio) |
| --- | --- |
| C14A C105U | -0.869 |
| C14G A22U A39U | ≤ -4.2 |
| C14A C32U C85U A98U U111G U139G U151A | -4.14 |
| U13G G42C A49U G65A G71A G92A | -3.74 |
| C14G A47C A52G A115C A119G | ≤ -4.2 |
| C14G A23U G46U A66G G70A A91G C116G C131G | ≤ -4.2 |
| C14G C54U A64G A66C U82G A97G G140U | ≤ -4.2 |
| C14G G34U A41C U77G G83U A115G U135G | ≤ -4.2 |
| C14A A115G | -2.5 |
| C14U A49G U53A C85U C116A | -3.48 |
| C14A A41C C51U A64U C76A A89G C95A G128A A150U | ≤ -4.2 |
| C14G U56A C96U | -3.43 |
| U13G U56A A91G | -3.81 |
| C14A G59U G94U C125G U134A U151G | ≤ -4.2 |
| C14G G50U C87A G112C C123U U148G | ≤ -4.2 |
| C14A U53A C87G | ≤ -4.2 |
| C14A C27G A28G C43U G81A G84U U109G G143A | ≤ -4.2 |
| C14G A29U | -3.98 |
| C14A A21G U53A C85U | -3.58 |
| C14G U33C C87A A91C | ≤ -4.2 |
| C14G G80U G84U C132A | ≤ -4.2 |
| C14G A30G A52C C72A C95G C103G | ≤ -4.2 |
| U13G G59A | -1.2 |
| C14A C54G G62A G86U U101G G141U | ≤ -4.2 |

| Variant | polymerase ribozyme fitness (log ratio) |
| --- | --- |
| C14G A17C A22U U44A G83C C118A U134C | ≤ -4.2 |
| C14G A97C A110U A120G U134A | ≤ -4.2 |
| C14A U61A | -3.22 |
| C14A G141U | -0.0158 |
| C14A G141C | -1.87 |
| C14A A29U C51A C96G A115C C118A G141A | ≤ -4.2 |
| C14U A30G G48A C76G A98U U102G | ≤ -4.2 |
| C14G G80A | -1.72 |
| C14G A52C C85A | ≤ -4.2 |
| C14A A28G A122U U134G U144G | ≤ -4.2 |
| C14G A89U | -2.66 |
| C14G A19U C116A | -2.21 |
| C14G A30U C36A U55A A73C C85U A119G | ≤ -4.2 |
| C14G G50A | -3.35 |
| C14U A16U G81A A147U | -1.35 |
| C14G C69A C96U C118U | ≤ -4.2 |
| C14G G34A C85A | ≤ -4.2 |
| C14G G50U C87U C96A | -4.12 |
| C14A A49C G59C G62A A91U G100A C114U A137G U146C | ≤ -4.2 |
| C14U A39G C93U G143A | ≤ -4.2 |
| C14G G100U | ≤ -4.2 |
| C14G U139C | ≤ -4.2 |
| C14A A16U G86A C87G | -3.84 |
| C14G C96U U134C | -2.72 |

| Variant | polymerase ribozyme fitness (log ratio) |
| --- | --- |
| C14A A20U A47U C76U C85A C95U A115U C131G | ≤ -4.2 |
| C14G C54A C85G U127A | ≤ -4.2 |
| C14U A19G U31C A39C G50A A66U G68U C93G | ≤ -4.2 |
| C14G C54G G71A C99A G100A | ≤ -4.2 |
| C14G A17C U44A G81A C85U C125A | ≤ -4.2 |
| C14G U61A C85U C93A C108U A115U | ≤ -4.2 |
| C14G U53G U77G A91U | ≤ -4.2 |
| U13G U15A C36A A40C U56A G58A A107U G124U C131A | ≤ -4.2 |
| C14A U55A G68A A107U | ≤ -4.2 |
| C14A A26U U77G G84U A115C A147G U148G | ≤ -4.2 |
| C14A A20G C79A G94C G141A | ≤ -4.2 |
| C14A A37U G84A C125U | -3.95 |
| C14A A23U U31C U44A A73G G83C A110G | ≤ -4.2 |
| C14A C72U G81U C95U | -2.42 |
| C14G G92C | -2.66 |
| C14G G92A | -4.15 |
| C14U A41U C69A C85U | ≤ -4.2 |
| C14G C96G | -2.81 |
| C14A C18G A41C G42A G59C G68A C95U | ≤ -4.2 |
| C14G A28U A29C C32G U44G C63U G83A G86C C105U C108U G143U | ≤ -4.2 |
| C14G A19C A22C U61A A91U C105G C108G C114U A120G | ≤ -4.2 |
| C14A A40U C87A G136C | ≤ -4.2 |
| C14U A26G C38U U61G C87A U90A | -3.51 |
| C14A A39U A52U C87A C95U C96U G100U C125A | ≤ -4.2 |

| Variant | polymerase ribozyme fitness (log ratio) |
| --- | --- |
| C14U A16G U56A | -2.11 |
| C14A A19U U33G C69A C75G C96A A97G A106C G140C | ≤ -4.2 |
| C14U A23U A37C A52G G58C C85G A119C A137U | ≤ -4.2 |
| C14U A41U G46A A52U C63G C93U C105G | ≤ -4.2 |
| C14A A21C A64G C75U C76G C85U C105U A120U | ≤ -4.2 |
| C14G A26U A28G C35A U56C C57U U90G | ≤ -4.2 |
| C14G A26G U44A C99G C103U | ≤ -4.2 |
| C14G U45A C79U G88A U104G A113U | -4.17 |
| C14G A19G C43U G86A U104G C108G A122C | ≤ -4.2 |
| C14G A22G G94A C118G A150C | ≤ -4.2 |
| C14G C32G C76A U139A | ≤ -4.2 |
| C14G C54A C57A G62A U78A C85U G88A A115U | ≤ -4.2 |
| C14G A23U A41U U78C G80C G81U C96U A110U G143U | ≤ -4.2 |
| C14G U31G G86C U102G | ≤ -4.2 |
| C14G C32A U61G A120C | ≤ -4.2 |
| C14G C36U C85U G136U A138G | ≤ -4.2 |
| C14G A26G C27A U44A U45C C72A U151G | ≤ -4.2 |
| C14G U45G G46A C54U C72A U139G A142U | ≤ -4.2 |
| C14A G58C C93U | -2.75 |
| C14G A16C C51U G94U C125U | -3.93 |
| C14G A30C C35A G48A C87G U102A | ≤ -4.2 |
| C14G U53A G94A G124U | -3.37 |
| U13G G84A | -0.636 |
| C14G C87U | -2.29 |

| Variant | polymerase ribozyme fitness (log ratio) |
| --- | --- |
| C14G C87G | ≤ -4.2 |
| U13G U53A C85A C95U A98U G141C | ≤ -4.2 |
| C14G G50A C54U C93A U139A | ≤ -4.2 |
| C14G A17C | -2.89 |
| C14G C35A G74U G86A A120U | ≤ -4.2 |
| C14U A30G G81A C85G A97G G133A | ≤ -4.2 |
| C14G G86U | -3.77 |
| C14G U55C C57A A66G G81A C85U | ≤ -4.2 |
| C14A A17C U31A C57U C96G | -3.28 |
| C14G A23U A52C G84A C118U | ≤ -4.2 |
| C14U A22G | -3.07 |
| C14G C54U G68C C87U | ≤ -4.2 |
| C14U A89U C93U | -3.88 |
| C14A A20U A26C G84A G141A | ≤ -4.2 |
| C14G A60G | -2.34 |
| C14U A22G A39G G71A C93U G152C | ≤ -4.2 |
| U13G G58C A122C | -1.1 |
| C14A U55G C63G C93U C118U | ≤ -4.2 |
| C14A G59C C85A C99U G141U U146G | ≤ -4.2 |
| U13G G59U C85U G94U G112A C116A | ≤ -4.2 |
| C14U A19U G84A | -0.945 |
| C14G G48U C76U U77G A91C C99G C105G A122G C123G C129G U135G | ≤ -4.2 |
| C14U A26G G92C | ≤ -4.2 |
| U13G G83C C125G G133A U145G | ≤ -4.2 |

| Variant | polymerase ribozyme fitness (log ratio) |
| --- | --- |
| U13G U82A C96U U130A | -3.83 |
| C14U A66U U78C | ≤ -4.2 |
| C14G U15C C76A C85G | -3.78 |
| C14G U44G U53A C75A U90C C93U | ≤ -4.2 |
| C14G C75G U77A C87A A137U G143U | ≤ -4.2 |
| C14A A41C C85A C132U U145A | ≤ -4.2 |
| C14G C54U C72U | -3.4 |
| C14A A39U C85G G140A | ≤ -4.2 |
| C14A A17U A115G | -3.2 |
| C14G U55A | -2.86 |
| C14U A37C | -1.79 |
| C14A G25U U82G G94U | ≤ -4.2 |
| C14G G84A C85G A106G | ≤ -4.2 |
| C14G C57G C87G | ≤ -4.2 |
| C14U A52U C85G G133C A142G | ≤ -4.2 |
| C14A G48C U56A C96A | -3.68 |
| C14G A47C A60U G65A | ≤ -4.2 |
| C14G G34A G128A G141C | -3.91 |
| C14A A49C C69A | ≤ -4.2 |
| C14G U77G G80U C85A | ≤ -4.2 |
| U13G G84U U135A G136A | -2.14 |
| C14G U15G A30U A91G | ≤ -4.2 |
| C14U A52G U53G G74A A91C C96U G141U | ≤ -4.2 |
| C14G U53A G84C G92U C95A A107G A119U | ≤ -4.2 |

| Variant | polymerase ribozyme fitness (log ratio) |
| --- | --- |
| C14A A26G G67A A73U G86C A121U C123G A138C U146A | ≤ -4.2 |
| C14U A17U C38G A60U | -2.73 |
| C14U A19C U45A G84A C96A U109C | ≤ -4.2 |
| C14G A52C C69U U77G G92A | ≤ -4.2 |
| C14A C54U C118U G136U | -4.12 |
| C14U A52G G62A C96G U104G | ≤ -4.2 |
| C14G U53A | -2.66 |
| C14U A40U A41U A49U A73G G92A C125U | -4.11 |
| C14U A73G C75G C87A A98G U111G | ≤ -4.2 |
| C14G A19G A20C G117A G124C | -3.94 |
| C14G U15C C38U C114U | -2.11 |
| C14A U55G U56A G92U A150G | -4.11 |
| C14G G50U U56G G59C C108U | ≤ -4.2 |
| C14G A17C A23C A40C G88A G94U C123G U134G G140A | ≤ -4.2 |
| C14A C43A C51U C54G C93A U145C A150C | ≤ -4.2 |
| C14A G50A C87A A106U C108G A150C | ≤ -4.2 |
| C14G U15C C85U A121C G126A | -0.0533 |
| C14G A24G A26G A39C A66C C105U A107U | ≤ -4.2 |
| C14G C85A | -3.74 |
| C14G U56A A60C G88C C95U U139G G140A | ≤ -4.2 |
| C14A A22G G86U G140C | ≤ -4.2 |
| U13G U44A G68C G88A C95A U144A | ≤ -4.2 |
| C14A C72U | -1.72 |
